Experiments:
MC38 tumors = test: MC38 tumor growth after IR (20Gy) plus intratumoral RNA with jetPEI; assay type: in vivo, mouse; settings: in combination with jetPEI lipid and IR (20Gy); injected 1, 7 and 14 days post-IR
Description: To further test ability of delivered RNAs to affect tumor growth we irradiated MC38 tumors at 20Gy and injected irradiated tumors with stem-loop regions of U1 or U2 at 1, 7 and 14 dayspost-IR. Tumors were grown for 17 days post IR and each 3rd day were measured as described in. As is shown in FIG. 40, injection of stem-loop structures of U1 in combination with jetPEI lipid and IR led to the 2-fold suppression of tumor growth as compared with IR only.
To further test ability of delivered synthetic RNAs (M5 and M8) to affect tumor growth we irradiated MC38 tumors at 20Gy and injected irradiated tumors 1, 7 and 14 dayspost-IR. Tumors were grown for 17 days post IR and each 3rd day were measured as described in. Injection of synthetic RNAs, M5 and M8, in combination with jetPEI lipid and IR led to the 2-fold suppression of tumor growth as compared with IR only.

RIG-I = biological target: T1, RIG-I (Homo sapiens, UniProt O95786); test: HEK293 IFN-beta promoter dual luciferase reporter, RNA stimulation; assay type: cell-based; settings: in vitro transcribed RNA, RIG-I overexpressing HEK293 cells; also activates endogenous RIG-I
T1 construct: HEK293 cells overexpressing either the full length RIG-I; host or cells: HEK293; HCT116 also for the qRT-PCR validation
T1 sequence (O95786 1-925): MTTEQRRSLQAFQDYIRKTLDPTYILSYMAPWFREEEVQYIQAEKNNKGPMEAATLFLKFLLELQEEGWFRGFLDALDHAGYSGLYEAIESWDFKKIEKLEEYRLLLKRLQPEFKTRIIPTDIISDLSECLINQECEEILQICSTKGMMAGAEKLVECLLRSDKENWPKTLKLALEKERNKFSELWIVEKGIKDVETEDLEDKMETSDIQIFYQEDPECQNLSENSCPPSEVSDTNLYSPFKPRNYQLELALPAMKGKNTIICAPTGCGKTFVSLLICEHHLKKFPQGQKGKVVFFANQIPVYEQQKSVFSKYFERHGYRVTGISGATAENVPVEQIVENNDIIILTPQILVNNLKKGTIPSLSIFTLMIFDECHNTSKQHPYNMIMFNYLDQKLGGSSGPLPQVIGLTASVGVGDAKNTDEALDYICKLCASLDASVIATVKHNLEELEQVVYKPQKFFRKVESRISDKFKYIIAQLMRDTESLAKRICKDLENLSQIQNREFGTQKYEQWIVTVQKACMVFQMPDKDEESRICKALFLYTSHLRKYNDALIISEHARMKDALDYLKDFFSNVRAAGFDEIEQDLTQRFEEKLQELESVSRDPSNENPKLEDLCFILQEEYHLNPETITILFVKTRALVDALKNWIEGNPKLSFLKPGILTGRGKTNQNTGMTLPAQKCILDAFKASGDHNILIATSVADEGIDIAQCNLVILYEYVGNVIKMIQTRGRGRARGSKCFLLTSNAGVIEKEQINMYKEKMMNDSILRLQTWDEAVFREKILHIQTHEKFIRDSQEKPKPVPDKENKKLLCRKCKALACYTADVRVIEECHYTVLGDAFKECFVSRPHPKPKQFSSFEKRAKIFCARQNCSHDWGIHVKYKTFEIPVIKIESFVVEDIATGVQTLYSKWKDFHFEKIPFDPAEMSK
Description: We also used reporter HEK293 cells as simple technique to evaluate ability of the given RNA to stimulate IFN-beta production in preliminary in vitro experiments. Technically this was performed as follows: RNA stimulation of HEK293 IFN-beta reporter cells HEK293 cells were seeded in a 24-well plate overnight at a density of 1.5×10^5 cells/ml (75,000 cells/well). Cells were co-transfected with 100 ng of plasmid construct (pCAGGS empty vector, pCAGGS-RIG-I full-length, pCAGGS-RIG-I helicase-RD mutant construct, and […] mutant construct), together with 80 ng of a firefly luciferase reporter gene driven by an IFN-beta promoter and 20 ng of a Renilla luciferase (pRL-null) transfection control. Transfections were performed using a cationic lipid agent, Fugene HD (Promega), at a 3:1 lipid:DNA ratio. Twenty-four hours post-transfection, cells were then stimulated with 1 μg RNA* mixed with Fugene HD at 2:1 lipid: RNA ratio for 24 hours. 20 μl cell lysates were collected in opaque 96-well plates and analyzed for IFN-beta-luciferase and Renilla activity using a BioTek Synergy HT plate reader. The transfection efficiency across different wells was normalized by dividing the IFN-beta luciferase activity with the Renilla activity. All values were further normalized to the unstimulated controls in cells transfected with the empty vector. All pCAGGS RIG-I constructs used in this study were generous gifts from Dr. Jenish Patel and Dr. Adolfo Garcia-Sastre of The Icahn School of Medicine at Mount Sinai in New York City. Synthetic RNA comprised of various stem loop regions of the human U1 snRNA were purchased from IDT Oligos as reported in (Bernard et al., 2012). U1 stem loop I sequence: [NT] ID NO:15); U1 stem loop II sequence: [NT] ID NO:16); U1 stem loop III sequence: [NT] ID NO:17); U1 stem loop IV sequence: [NT] ID NO:18); U1 stem loops I and II sequence: [NT] ID NO:19); U1 stem loops II and III sequence: [NT] ID NO:20). In vitro transcribed U1 RNA stimulation: Full length U1 (pT7U1) plasmid was generously provided by Dr. Joan Steitz (Yale School of Medicine, Yale University). […]

B1: M5: rbRNA, RIG-I agonist, 81 nucleotides, SEQ ID NO:26 (nucleic acid)
chain: GACGAAGACCACAAAACCAGATAAAAAATTATTTTTTATCTGGTTTTGTGGTCTTCGTCTATAGTGAGTCGTATTAATTTC
modifications: listed as DNA, chemistry not given here
suppression of tumor growth as compared with IR only (MC38 tumors): 2 fold | IFN-beta stimulatory activity (IFN-beta luciferase reporter) (RIG-I): potent IFN-beta stimulatory activity
